Source: the RNAGym collection of RNA variant scans (doi:10.1073/pnas.2313332121)

B1: TPR t1 (parent)
chain: GACCAAUCUGCCCUCAGAGCUCGAGAACAUCUUCGGAUGCAGAGGAGGCAGGCUUCGGUGGCGCGAUAGCGCCAACGUCCUCAACCUCCAAUGCAUCCCACCACAUGAUGAUGCCUGAAGAGCCUUGGUUUUUUG

Variants of: B1
Assay: polymerase ribozyme fitness, log enrichment relative to wild type (log ratio); higher = more active; in vitro selection for triplet polymerase activity
How it was run: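 Fitness is a logarithmic measure of how a genotype enriched relative to the wild type, with replicate averages weighted by inverse variance. The logarithm uses base 2, and enrichment came from Illumina sequencing of input and output libraries. Those libraries were PCR-built, transcribed mutants of each subunit of a heterodimeric triplet polymerase ribozyme, passed through one triplicate in vitro selection round that included frozen incubation at −7 °C, gel excision of extended constructs and streptavidin-bead capture. Genotypes were kept only if they had ≥10 input reads and ≥1 read per output.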

Variant	polymerase ribozyme fitness (log ratio)
A27G C62U C94A U106C	-4.15
A27G C73A	-2.84
A27G C85A	-3.2
A27G C86U	-2.44
A27G C88U U92A C104A U109C A119G U133A	-7.24
A27G C89A	-3.54
A27G G45A	-2.35
A27G G45U U96G G120U	-3.04
A27G G48C G71C G127C	-5.17
A27G G52A C56U	-2.59
A27G G57C G122A U132C	-3.07
A27G G57U	-2.3
A27G G60U A105U	-5.71
A27G G61A U81C A84C C104U G110U U131C	-2.62
A27G G61C C88G G128A	-7.26
A27G G63A C79U	-1.86
A27G G93C C104U	-3.11
A27G U32G C62U U78G G120C	-6.42
A27G U55A	-2.6
A27G U55A G77C A95C	-4.8
A27G U96G C99G U129A	-6.24
A27G U106A	-2.32
A27U	-2.89
A27U A29C	-4.78

Variant	polymerase ribozyme fitness (log ratio)
A27U A43G	-5.43
A27U A43U	-5.8
A27U A83U C86U U129C	-3.64
A27U A83U G128C	-6.05
A27U A105U	-4.58
A27U A121C	-0.527
A27U C40A C70A	-6.74
A27U C40G U132A	-5.01
A27U C40U C72G A100C	-7.09
A27U C49A C56U C62U U87G G113C	-6.58
A27U C49U	-3.64
A27U C53A C56A U131G	-2.89
A27U C62G	-5.76
A27U C70U C73G A84G C89G C114G	-6.4
A27U C72U	-3.48
A27U C72U C85G A111U U132A	-4.04
A27U C73A	-3.09
A27U C73A U129C	-3.27
A27U C73U A75G	-3.03
A27U C86A	-3.77
A27U C86G	-3.66
A27U C101A	-4.18
A27U C114A	-3.53
A27U C115U	-3.71

Variant	polymerase ribozyme fitness (log ratio)
A27U G39C G120U	-2.78
A27U G39U C72A	-3.78
A27U G44C G47C U112A	-3.34
A27U G44C U96C	-4.49
A27U G44U C56A U133A	-4.31
A27U G44U G69C C89U	-6.05
A27U G47U	-2.07
A27U G48U A50U C123U	-2.86
A27U G52A C88U U96A	-4.5
A27U G60U	-3.37
A27U G60U G128A	-4.65
A27U G61A	-2.77
A27U G63C G71A C82G G113A U129A	-5.8
A27U G63U U96G G127C	-6.08
A27U G71A U96A U109A	-6.15
A27U G71U G93U	-5.1
A27U G77U U78G A111C	-6.32
A27U G122A	-4.26
A27U G127A	-4.51
A27U G135U	-4.15
A27U U38C A46U G48A G69U G110U C114U A119G	-6.11
A27U U54A	-2.8
A27U U54A A75U U78C G127C	-6.04
A27U U54C G71U C98A U132C	-6.73

Variant	polymerase ribozyme fitness (log ratio)
A27U U54C U109A G117A A118U U129G	-5.85
A27U U78C U81A C94U	-4.92
A27U U81C U132C	-4.09
A27U U96C C124G	-1.73
A27U U133A	-3.33
C28A	-3.83
C28A A41U C53G C104G G110A	-6.89
C28A A43U C86G	-5.44
C28A A50C C72U G113A	-3.3
C28A A50G C62U G65U G69U U112A	-3.65
C28A A75G G120U U129G	-6.26
C28A C56U	-2.94
C28A C56U A121G	-2.77
C28A C70G C79G U130C	-6.51
C28A C70U	-4.86
C28A C72G	-2.92
C28A C73A	-4.02
C28A C79A A111C U112G	-6.04
C28A C86U A111U	-2.22
C28A C97U G110C	-1.97
C28A G39U A43G C56U G61U C64G G120C	-6.64
C28A G47A C79U G110C	-2.69
C28A G51U G60C C80U G110U G117A	-2.3
C28A U54A G71U G110U	1.85

Variant	polymerase ribozyme fitness (log ratio)
C28A U112A	-1.21
C28G	-2.31
C28G A41C	-4.58
C28G A46U	-3.8
C28G A66G C123U	-3.76
C28G A95U U125A	-3.63
C28G A111G	-4.41
C28G A118G	-2.17
C28G C34U G35U A37U A95C C114U U133G	-6.83
C28G C53A C72A	-3.19
C28G C72A C102G G107A	-7.59
C28G C72G	-2.2
C28G C73U	-2.15
C28G C82U	-2.1
C28G C98U C124U	-3.04
C28G C123U	-0.975
C28G G39U C53U G63C C124A	-3.26
C28G G48A A83C A84C	-3.22
C28G G48A C72U	-3.41
C28G G52A C70U C86U C101U G110A U131G	-2.57
C28G G57C G63C C73U A83C C123A	-5.12
C28G G60U	-2.56
C28G G61A	-2.51
C28G G63A G93U C114A A118C	-7.47

Variant	polymerase ribozyme fitness (log ratio)
C28G G63U	-4.26
C28G G69U A121C	0.386
C28G G71U	-2.39
C28G G77U	-3.74
C28G G110A G128U	-2.89
C28G G110U C124U	-0.355
C28G U32C C56G G117A	-5.54
C28G U38A C86U	-5.02
C28G U59G U81C G117C	-6.32
C28G U78C	-2.53
C28G U87G	-2.01
C28U	-1.69
C28U A29G	-5.97
C28U A37C C76G	-3.54
C28U A41C C53G	-3.32
C28U A41C G57C	-2.88
C28U A43G G113A	-3.91
C28U A46G U129G	-2.5
C28U A50U C62U A68G U106A G110A C114A	-6.37
C28U A50U C123U	-3.55
C28U A108G	-4.76
C28U A111C	-3.29
C28U A111U	-3.7
C28U A121C	-0.0887

Variant	polymerase ribozyme fitness (log ratio)
C28U C40A C123A	-3.16
C28U C40A G120C	-2.59
C28U C40U G51C C76A	-6.21
C28U C49G U129A	-5.15
C28U C53U U92C U106A U133A	-3.09
C28U C56A	-1.65
C28U C56G C73A	-4.7
C28U C56U C73G U78C C101A	-5.44
C28U C62U	-2.6
C28U C64U U87A	-1.96
C28U C70U	-2.13
C28U C72G	-2.23
C28U C72G G110C	-1.52
C28U C72G U78A	-2.79
C28U C72U	-2.26
C28U C72U C82U	-1.52
C28U C73G G93C	-3.34
C28U C82A	-2.3
C28U C82A C114U	-3.98
C28U C104U	-2.27
C28U C123G	-0.0468
C28U C124A	0.0271
C28U C124U	-0.485
